From publication PMC6905151, “Mapping of the binding site for FcμR in human IgM-Fc” (Biochimica et Biophysica Acta. Proteins and Proteomics, 2020)

Biological target: T1, soluble extracellular immunoglobulin-like domain of FcμR (human)
T1 construct: FcμR (FAIM3, TOSO), human; 390-aa polypeptide with a 17-aa signal peptide and a 107-aa Ig-like domain; The receptor clone came from Prof; H. Kubagawa; also called sIgFcμR; not shown: His tag (from the nickel column chromatography)
T1 sequence (O60667 whole entry, looked up): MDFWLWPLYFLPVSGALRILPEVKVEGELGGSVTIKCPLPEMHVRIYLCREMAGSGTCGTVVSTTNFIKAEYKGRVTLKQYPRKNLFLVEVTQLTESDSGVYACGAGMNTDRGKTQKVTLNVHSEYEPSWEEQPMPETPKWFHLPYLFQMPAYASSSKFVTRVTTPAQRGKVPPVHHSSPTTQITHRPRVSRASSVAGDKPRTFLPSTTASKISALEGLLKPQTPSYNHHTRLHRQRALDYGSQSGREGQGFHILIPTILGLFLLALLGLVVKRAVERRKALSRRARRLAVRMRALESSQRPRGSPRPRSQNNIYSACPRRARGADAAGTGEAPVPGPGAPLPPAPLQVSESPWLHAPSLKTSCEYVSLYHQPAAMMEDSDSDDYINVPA
Test: SPR; Biacore T200, 25 °C, 0.01 M HEPES, 0.15 M NaCl, 0.005% Surfactant P20, pH 7.4; IgM, IgM-Fc, Fcμ3-4 or IgM-Fc mutants immobilised on CM5 by amine coupling; analyte sIgFcμR 0.25 μM to 12 μM; steady state, 1:1 binding model
Settings: both partners purified

B1: Fcμ3-4, dimer of Cμ3-Cμ4 domains (domain or fragment)
chain: DQDTAIRVFAIPPSFASIFLTKSTKLTCLVTDLTTYDSVTISWTRQNGEAVKTHTNISESHPNATFSAVGEASISEDDWNSGERFTCTVTHTDLPSPLKQTISRPKGVALHRPDVYLLPPAREQLNLRESATITCLVTGFSPADVFVQWMQRGQPLSPEKYVTSAPMPEPQAPGRYFAHSILTVSEEEWNTGETYTCVVAHEALPNRVTERTVDKSTGK
Question: With B1 as the binder, how does the Kd read?
Answer: 1090 nM
